Experiments:
HLA-A*01:01 [1] = test: IEDB peptide-MHC binding, purified MHC/direct/fluorescence; filed as Kd, often an IC50 or EC50 that approximates it; ≥ and ≤ were set here for values at or beyond the usual limits of such assays
HLA-A*02:01 [2] = test: as above
HLA-A*03:01 [3] = test: as above
HLA-A*24:02 = test: as above
HLA-A*69:01 = test: as above
HLA-B*07:02 [4] = test: as above
HLA-B*08:01 [5] = test: as above
HLA-B*08:02 = test: as above
HLA-B*15:01 = test: as above
HLA-B*18:01 [6] = test: as above
HLA-B*27:05 = test: as above
HLA-B*40:01 [7] = test: as above
HLA-B*44:02 [8] = test: as above
HLA-B*46:01 = test: as above
HLA-B*58:01 = test: as above
HLA-A*11:01 [9] = test: as above
HLA-A*26:01 = test: as above
HLA-A*31:01 [10] = test: as above
HLA-B*15:09 = test: as above
HLA-A*24:03 = test: as above; settings: source organism: Influenza A virus (A/camel/Mongolia/1982(H1N1))
HLA-A*01:01 [11] = test: IEDB peptide-MHC binding, purified MHC/competitive/radioactivity; filed as Kd, often an IC50 or EC50 that approximates it; ≥ and ≤ were set here for values at or beyond the usual limits of such assays; settings: source organism: Hepacivirus hominis
HLA-A*02:01 [12] = test: as above; settings: source organism: Hepacivirus hominis
HLA-A*02:02 = test: as above; settings: source organism: Hepacivirus hominis
HLA-A*02:03 = test: as above; settings: source organism: Hepacivirus hominis
HLA-A*02:06 = test: as above; settings: source organism: Hepacivirus hominis
HLA-A*03:01 [13] = test: as above; settings: source organism: Hepacivirus hominis
HLA-A*11:01 [14] = test: as above; settings: source organism: Hepacivirus hominis
HLA-A*31:01 [15] = test: as above; settings: source organism: Hepacivirus hominis
HLA-A*33:01 = test: as above; settings: source organism: Hepacivirus hominis
HLA-A*68:01 = test: as above; settings: source organism: Hepacivirus hominis
HLA-A*68:02 = test: as above; settings: source organism: Hepacivirus hominis
HLA-B*07:02 [16] = test: as above; settings: source organism: Hepacivirus hominis
HLA-B*08:01 [17] = test: as above; settings: source organism: Hepacivirus hominis
HLA-B*18:01 [18] = test: as above; settings: source organism: Hepacivirus hominis
HLA-B*35:01 = test: as above; settings: source organism: Hepacivirus hominis
HLA-B*40:01 [19] = test: as above; settings: source organism: Hepacivirus hominis
HLA-B*40:02 = test: as above; settings: source organism: Hepacivirus hominis
HLA-B*44:02 [20] = test: as above; settings: source organism: Hepacivirus hominis
HLA-B*44:03 = test: as above; settings: source organism: Hepacivirus hominis
HLA-B*51:01 = test: as above; settings: source organism: Hepacivirus hominis
HLA-B*53:01 = test: as above; settings: source organism: Hepacivirus hominis
HLA-B*54:01 = test: as above; settings: source organism: Hepacivirus hominis
[21] = source organism: Giardia lamblia ATCC 50803
[22] = source organism: Influenza A virus (A/chicken/Hunan/fg/2004(H5N1))
[23] = source organism: Influenza B virus (B/Chiba/447/98)
[24] = source organism: Influenza A virus (A/Puerto Rico/8/34/Mount Sinai(H1N1))
[25] = source organism: Influenza A virus (A/camel/Mongolia/1982(H1N1))
[26] = source organism: Influenza A virus H3N2
[27] = source organism: Vibrio parahaemolyticus
[28] = source organism: Vibrio vulnificus CMCP6

## IVKYKQYLK
HLA-A*01:01 [1]; [21]
  Kd: ≥ 20 µM
HLA-A*02:01 [2]; [21]
  Kd: ≥ 20 µM
HLA-A*03:01 [3]; [21]
  Kd: 0.0815 µM
HLA-A*24:02; [21]
  Kd: ≥ 20 µM
HLA-A*69:01; [21]
  Kd: ≥ 20 µM
HLA-B*07:02 [4]; [21]
  Kd: ≥ 20 µM
HLA-B*08:01 [5]; [21]
  Kd: ≥ 20 µM
HLA-B*08:02; [21]
  Kd: ≥ 20 µM
HLA-B*15:01; [21]
  Kd: ≥ 20 µM
HLA-B*18:01 [6]; [21]
  Kd: ≥ 20 µM
HLA-B*27:05; [21]
  Kd: ≥ 20 µM
HLA-B*40:01 [7]; [21]
  Kd: ≥ 20 µM
HLA-B*44:02 [8]; [21]
  Kd: ≥ 20 µM
HLA-B*46:01; [21]
  Kd: ≥ 20 µM
HLA-B*58:01; [21]
  Kd: ≥ 20 µM

## YSHGTGTGY
HLA-A*02:01 [2]; [22]
  Kd: ≥ 20 µM
HLA-A*03:01 [3]; [22]
  Kd: ≥ 20 µM
HLA-A*11:01 [9]; [22]
  Kd: ≥ 20 µM
HLA-A*24:02; [22]
  Kd: ≥ 20 µM
HLA-A*26:01; [23]
  Kd: 0.02 µM
HLA-A*31:01 [10]; [22]
  Kd: ≥ 20 µM
HLA-A*69:01; [22]
  Kd: ≥ 20 µM
HLA-B*07:02 [4]; [22]
  Kd: ≥ 20 µM
HLA-B*08:01 [5]; [22]
  Kd: ≥ 20 µM
HLA-B*08:02; [23]
  Kd: ≥ 20 µM
HLA-B*15:01; [24]
  Kd: 0.099 µM
HLA-B*27:05; [22]
  Kd: ≥ 20 µM
HLA-B*40:01 [7]; [22]
  Kd: ≥ 20 µM
HLA-B*58:01; [22]
  Kd: 0.905 µM

## EKFFPSSSY
HLA-A*01:01 [1]; [25]
  Kd: ≥ 20 µM
HLA-A*02:01 [2]; [25]
  Kd: ≥ 20 µM
HLA-A*03:01 [3]; [25]
  Kd: ≥ 20 µM
HLA-A*11:01 [9]; [25]
  Kd: ≥ 20 µM
HLA-A*24:02; [25]
  Kd: ≥ 20 µM
HLA-A*31:01 [10]; [25]
  Kd: ≥ 20 µM
HLA-A*69:01; [25]
  Kd: ≥ 20 µM
HLA-B*07:02 [4]; [25]
  Kd: ≥ 20 µM
HLA-B*08:01 [5]; [25]
  Kd: ≥ 20 µM
HLA-B*08:02; [26]
  Kd: ≥ 20 µM
HLA-B*15:01; [24]
  Kd: 1.12 µM
HLA-B*27:05; [25]
  Kd: ≥ 20 µM
HLA-B*58:01; [25]
  Kd: ≥ 20 µM

## ASEELMDKY
HLA-A*01:01 [1]; [27]
  Kd: 0.0272 µM
HLA-A*02:01 [2]; [27]
  Kd: ≥ 20 µM
HLA-A*03:01 [3]; [27]
  Kd: ≥ 20 µM
HLA-A*24:02; [27]
  Kd: ≥ 20 µM
HLA-A*26:01; [28]
  Kd: ≥ 20 µM
HLA-A*31:01 [10]; [27]
  Kd: ≥ 20 µM
HLA-A*69:01; [27]
  Kd: ≥ 20 µM
HLA-B*07:02 [4]; [27]
  Kd: ≥ 20 µM
HLA-B*08:02; [28]
  Kd: ≥ 20 µM
HLA-B*15:01; [27]
  Kd: ≥ 20 µM
HLA-B*15:09; [28]
  Kd: ≥ 20 µM
HLA-B*27:05; [27]
  Kd: ≥ 20 µM
HLA-B*40:01 [7]; [27]
  Kd: ≥ 20 µM
HLA-B*44:02 [8]; [27]
  Kd: ≥ 20 µM
HLA-B*46:01; [27]
  Kd: ≥ 20 µM
HLA-B*58:01; [27]
  Kd: ≥ 20 µM

## KFFPSSSYR
HLA-A*01:01 [1]; [25]
  Kd: ≥ 20 µM
HLA-A*02:01 [2]; [25]
  Kd: ≥ 20 µM
HLA-A*03:01 [3]; [24]
  Kd: 0.184 µM
HLA-A*24:02; [25]
  Kd: ≥ 20 µM
HLA-A*24:03
  Kd: ≥ 20 µM
HLA-A*69:01; [25]
  Kd: ≥ 20 µM
HLA-B*07:02 [4]; [25]
  Kd: ≥ 20 µM
HLA-B*08:01 [5]; [25]
  Kd: ≥ 20 µM
HLA-B*15:01; [25]
  Kd: ≥ 20 µM
HLA-B*15:09; [26]
  Kd: ≥ 20 µM
HLA-B*18:01 [6]; [25]
  Kd: ≥ 20 µM
HLA-B*27:05; [25]
  Kd: ≥ 20 µM
HLA-B*40:01 [7]; [25]
  Kd: ≥ 20 µM
HLA-B*44:02 [8]; [25]
  Kd: ≥ 20 µM
HLA-B*46:01; [25]
  Kd: ≥ 20 µM
HLA-B*58:01; [25]
  Kd: ≥ 20 µM

## RPALVFDITK
HLA-A*01:01 [11]
  Kd: ≥ 51.3 µM
HLA-A*02:01 [12]
  Kd: ≥ 37.4 µM
HLA-A*02:02
  Kd: ≥ 70 µM
HLA-A*02:03
  Kd: ≥ 70.4 µM
HLA-A*02:06
  Kd: 12.3 µM
HLA-A*03:01 [13]
  Kd: ≥ 29.7 µM
HLA-A*11:01 [14]
  Kd: 0.796 µM
HLA-A*31:01 [15]
  Kd: ≥ 70 µM
HLA-A*33:01
  Kd: ≥ 70 µM
HLA-A*68:01
  Kd: 0.133 µM
HLA-A*68:02
  Kd: ≥ 69.8 µM
HLA-B*07:02 [16]
  Kd: 0.222 µM
HLA-B*08:01 [17]
  Kd: ≥ 49.8 µM
HLA-B*18:01 [18]
  Kd: ≥ 70.5 µM
HLA-B*35:01
  Kd: ≥ 27.4 µM
HLA-B*40:01 [19]
  Kd: ≥ 69.6 µM
HLA-B*40:02
  Kd: ≥ 70.8 µM
HLA-B*44:02 [20]
  Kd: ≥ 70.2 µM
HLA-B*44:03
  Kd: 15.6 µM
HLA-B*51:01
  Kd: ≥ 69.6 µM
HLA-B*53:01
  Kd: 18.9 µM
HLA-B*54:01
  Kd: 11.2 µM

## SVFHEHIFK
HLA-A*01:01 [1]; [21]
  Kd: ≥ 20 µM
HLA-A*02:01 [2]; [21]
  Kd: ≥ 20 µM
HLA-A*03:01 [3]; [21]
  Kd: 0.154 µM
HLA-A*11:01 [9]; [21]
  Kd: 0.0092 µM
HLA-A*24:02; [21]
  Kd: ≥ 20 µM
HLA-A*26:01; [21]
  Kd: ≥ 20 µM
HLA-A*31:01 [10]; [21]
  Kd: 0.134 µM
HLA-A*69:01; [21]
  Kd: ≥ 20 µM
HLA-B*07:02 [4]; [21]
  Kd: ≥ 20 µM
HLA-B*15:01; [21]
  Kd: ≥ 20 µM
HLA-B*27:05; [21]
  Kd: ≥ 20 µM
HLA-B*40:01 [7]; [21]
  Kd: ≥ 20 µM
HLA-B*44:02 [8]; [21]
  Kd: ≥ 20 µM
HLA-B*58:01; [21]
  Kd: ≥ 20 µM

— the Immune Epitope Database (IEDB)
